Positions count from the first letter of the chain named.
Experiments:
Assay in all cases: cell-based or functional assay
hu-IL-36α [1] = target: T1, hu-IL-36α (human, UniProt Q9UHA7 6-158)
T1 sequence: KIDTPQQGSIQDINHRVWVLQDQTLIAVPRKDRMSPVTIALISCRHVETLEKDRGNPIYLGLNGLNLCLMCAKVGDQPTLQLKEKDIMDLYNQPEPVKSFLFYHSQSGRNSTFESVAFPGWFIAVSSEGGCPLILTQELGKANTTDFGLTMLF

hu-IL-36γ [2] = target: T2, hu-IL-36γ (human, UniProt Q9NZH8 18-169)
T2 sequence: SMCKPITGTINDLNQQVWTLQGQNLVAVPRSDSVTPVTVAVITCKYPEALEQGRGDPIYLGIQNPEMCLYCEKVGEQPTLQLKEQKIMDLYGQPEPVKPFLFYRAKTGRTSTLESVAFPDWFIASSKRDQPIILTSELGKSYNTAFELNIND

hu-IL-36β [3] = target: T3, hu-IL-36β (human)
T3 chain: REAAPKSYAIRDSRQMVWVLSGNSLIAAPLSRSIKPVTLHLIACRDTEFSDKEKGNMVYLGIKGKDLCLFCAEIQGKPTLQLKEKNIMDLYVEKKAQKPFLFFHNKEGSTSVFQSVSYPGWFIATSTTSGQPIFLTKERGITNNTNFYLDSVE

hu-IL-36α [4] = target: T1, hu-IL-36α; remark: listed apart in the source
hu-IL-36γ [5] = target: T2, hu-IL-36γ; remark: listed apart in the source
cy-IL-36α = target: T4, cy-IL-36α (cynomolgus monkey, UniProt Q9UHA7 14-158 (human entry), limits assumed)
T4 chain: T1 sequence with I2S, D3E, T4M, Q7P, G8V, T24I, M34V, A40S, V74A

cy-IL-36γ = target: T5, cy-IL-36γ (cynomolgus monkey, UniProt Q9NZH8 18-167 (human entry), limits assumed)
T5 chain: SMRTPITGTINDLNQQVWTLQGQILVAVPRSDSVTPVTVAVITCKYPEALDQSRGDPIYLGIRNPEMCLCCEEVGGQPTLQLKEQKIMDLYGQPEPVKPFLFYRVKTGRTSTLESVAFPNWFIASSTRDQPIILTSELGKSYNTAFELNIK

hu-IL-36β [6] = target: T3, hu-IL-36β
hu-IL-36β [7] = target: T3, hu-IL-36β
hu-IL-36α [8] = target: T1, hu-IL-36α; remark: listed apart in the source
hu-IL-36γ [9] = target: T2, hu-IL-36γ; remark: listed apart in the source

B1: mAb1.0 Fab (Fab, V domains shown)
VH: QVQLVESGGGVVQPGRSLRLSCAASGFSFSAYAMHWVRQAPGKGLEWVAVISYDGTNEYYADSVKGRFTISRDNSKNTLYLQMNSLRAEDTAVYYCARGIRIFTSYFDSWGQGTLVTVSS
VL: QSVLTQPPSVSGAPGQRVTISCTGSSSNIGAHYDVHWYQQLPGTAPKLLIYSNNNRPSGVPDRFSGSKSGTSASLAITGLQAEDEADYYCQSYDYSLRGYVFGGGTKLTVL
% Inhibition, HEK Blue SEAP reporter assay (hu-IL-36α [1]): 70%
% Inhibition, HEK Blue SEAP reporter assay (hu-IL-36γ [2]): 31%

B2: mAb5.0 Fab (Fab, V domains shown)
VH: EVQLLESGGGLVQPGGSLRLSCAASGFTFSTYAMSWVRQAPGKGLEWVSGISGGSGYTYYADSVKGRFTISRDNSKNTLYLQMNSLRAEDTAVYYCARVVTYRDPPASFDYWGQGTLVTVSS
VL: B1 VL with S52G, N54D, R98K, G99A
% Inhibition, HEK Blue SEAP reporter assay (hu-IL-36α [1]): 75%
% Inhibition, HEK Blue SEAP reporter assay (hu-IL-36γ [2]): 75%

B3: mAb6.0 Fab (Fab, V domains shown)
VH: QLQLQESGPGLVKPSETLSLTCTVSGGSITSSNYYWGWIRQPPGKGLEWIGSIDYTGSTYYNPSLKSRVTISVDTSKNQFSLKLSSVTAADTAVYYCARGKYYETYLGFDVWGQGTLVTVSS
VL: B1 VL with H32G, S52G, N54T, Y95I, R98S, Y100W
% Inhibition, HEK Blue SEAP reporter assay (hu-IL-36β [3]): 86%

B4: mAb7.0 Fab (Fab, V domains shown)
VH: QVQLVESGGGVVQPGRSLRLSCAASGFTFSSYGMHWVRQAPGKGLEWVAVISYGGSERYYADSVKGRFTISRDNSKNTLYLQMNSLRAEDTAVYYCAREPWYSSRGWTGYGFDVWGQGTLVTVSS
VL: EIVLTQSPGTLSLSPGERATLSCRASQSVSSNYLAWYQQKPGQAPKLLIYSASSLQSGVPSRFSGSGSGTDFTLTISSLQPEDFATYYCQQTYSYPPTFGQGTKVEIK
% Inhibition, HEK Blue SEAP reporter assay (hu-IL-36β [3]): 84%

B5: mAb8.0 Fab (Fab, V domains shown)
VH: QVQLVQSGAEVKKPGSSVKVSCKASGGTFSNYAISWVRQAPGQGLEWMGGILPILGTVDYAQKFQGRVTITADESTSTAYMELSSLRSEDTAVYYCAREPWYRLGAFDVWGQGTLVTVSS
VL: DIQMTQSPSSLSASVGDRVTITCRASQTIYKYLNWYQQKPGKAPKLLIYAASSLQSGVPSRFSGSGSGTDFTLTISSLQPEDFATYYCQQYSSIPYTFGQGTKVEIK
% Inhibition, HEK Blue SEAP reporter assay (hu-IL-36β [3]): 85%

B6: mAb1.0 IgG (antibody, V domains shown)
VH: B1 VH
VL: B1 VL
IC50, HEK Blue SEAP reporter assay (hu-IL-36α [4]): 43 nM
IC50, HEK Blue SEAP reporter assay (hu-IL-36γ [5]): 5.3 nM

B7: mAb2.0 IgG (antibody, V domains shown)
VH: QLQLQESGPGLVKPSETLSLTCTVSGGSISTSSYYWGWIRQPPGKGLEWIGSIYYTGNTYYNPSLKSRVTISVDTSKNQFSLKLSSVTAADTAVYYCARVRYGVGVPRYFDPWGQGTLVTVSS
VL: QSVLTQPPSVSGAPGQRVTISCTGSSSNIGAHYDVHWYQQLPGTAPKLLIYGNDNRPSGVPDRFSGSKSGTSASLAITGLQAEDEADYYCQSYDYSLSGYVFGGGTKLTVLG
IC50, HEK Blue SEAP reporter assay with cynomolgus IL-36 on human IL-36 receptor (cy-IL-36α): 0.56 nM
IC50, HEK Blue SEAP reporter assay with cynomolgus IL-36 on human IL-36 receptor (cy-IL-36γ): 1.71 nM
IC50, HEK Blue SEAP reporter assay (hu-IL-36α [4]): 5.7 nM
IC50, HEK Blue SEAP reporter assay (hu-IL-36γ [5]): 7.5 nM

B8: mAb3.0 IgG (antibody, V domains shown)
VH: B7 VH with T31S, S32T, Y54H, T56S, R101H, V104G, G105Y, V106I, Y109R, P112H
VL: B1 VL with H32G, S52G, N54T
IC50, HEK Blue SEAP reporter assay (hu-IL-36α [4]): 90 nM
IC50, HEK Blue SEAP reporter assay (hu-IL-36γ [5]): 30 nM

B9: mAb4.0 IgG (antibody, V domains shown)
VH: QLQLQESGPGLVKPSETLSLTCTVSGGSIGSRSYYWGWIRQPPGKGLEWIGSIHYSGTTYYNPSLKSRVTISVDTSKNQFSLKLSSVTAADTAVYYCARVAPSYPRVFDYWGQGTLVTVSS
VL: B1 VL with H32G, S52G, N54R, G99V
IC50, HEK Blue SEAP reporter assay (hu-IL-36α [4]): 16 nM
IC50, HEK Blue SEAP reporter assay (hu-IL-36γ [5]): 52 nM

B10: mAb5.0 IgG (antibody, V domains shown)
VH: B2 VH
VL: B1 VL with S52G, N54D, R98K, G99A
IC50, HEK Blue SEAP reporter assay (hu-IL-36α [4]): 95 nM
IC50, HEK Blue SEAP reporter assay (hu-IL-36γ [5]): 142 nM

B11: mAb2.0 Fab (Fab, V domains shown)
VH: B7 VH
VL: B1 VL with S52G, N54D, R98S
% Inhibition, HEK Blue SEAP reporter assay (hu-IL-36α [1]): 91%
% Inhibition, HEK Blue SEAP reporter assay (hu-IL-36γ [2]): 89%

B12: mAb7.0 IgG (antibody, V domains shown)
VH: B4 VH
VL: B4 VL
IC50, HEK Blue SEAP reporter assay (hu-IL-36β [6]): 1.4 nM

B13: mAb8.0 IgG (antibody, V domains shown)
VH: B5 VH
VL: B5 VL
IC50, HEK Blue SEAP reporter assay (hu-IL-36β [6]): 0.34 nM

B14: mAb3.0 Fab (Fab, V domains shown)
VH: B7 VH with T31S, S32T, Y54H, T56S, R101H, V104G, G105Y, V106I, Y109R, P112H
VL: B1 VL with H32G, S52G, N54T
% Inhibition, HEK Blue SEAP reporter assay (hu-IL-36α [1]): 40%
% Inhibition, HEK Blue SEAP reporter assay (hu-IL-36γ [2]): 64%

B15: mAb6.0_2.0 IgG (antibody, V domains shown)
VH: B3 VH
VL: B7 VL
fold lower potency than mAb6.0 IgG, HaCat IL-8 assay (hu-IL-36β [7]): 16 fold

B16: mAb4.0 Fab (Fab, V domains shown)
VH: B9 VH
VL: B1 VL with H32G, S52G, N54R, G99V
% Inhibition, HEK Blue SEAP reporter assay (hu-IL-36α [1]): 91%
% Inhibition, HEK Blue SEAP reporter assay (hu-IL-36γ [2]): 57%

B17: anti-IL-36 multispecific antibody mAb2.10/mAb6_2.7 (bispecific antibody, human IgG1, lambda, N297G)
heavy 1: not shown
heavy 2: not shown
light: ESVLTQPPSVSGAPGQRVTISCTGSSSNIGAHYDVHWYQQLPGTAPKLLIYGNDNRPSGVPDRFSGSKSGTSASLAITGLQAEDEADYYCQSYDYSLSGYVFGGGTKLTVLGQPKAAPSVTLFPPSSEELQANKATLVCLISDFYPGAVTVAWKADSSPVKAGVETTTPSKQSNNKYAASSYLSLTPEQWKSHKSYSCQVTHEGSTVEKTVAPTECS
percent of IL-8 production in HaCat cells inhibited at 8 nM antibody (hu-IL-36α [8]): 100%
percent of IL-8 production in primary human adult keratinocytes inhibited at 8 nM antibody (hu-IL-36α [8]): 100%
percent of IL-8 production in HaCat cells inhibited at 8 nM antibody (hu-IL-36γ [9]): 100%
percent of IL-8 production in primary human adult keratinocytes inhibited at 8 nM antibody (hu-IL-36γ [9]): 100%
percent of IL-8 production in HaCat cells inhibited at 8 nM antibody (hu-IL-36β [7]): 100%
percent of IL-8 production in primary human adult keratinocytes inhibited at 8 nM antibody (hu-IL-36β [7]): 100%
